According to the RNAGym collection of RNA variant scans (doi:10.7554/elife.80360):

B1: CPEB3 Ribozyme (parent)
chain: GGGGGCCACAGCAGAAGCGUUCACGUCGCGGCCCCUGUCAGAUUCUGGUGAAUCUGCGAAUUCUGCUGU

Variants of: B1
Experiment: self-cleavage, relative activity (ratio to wild type); higher = more cleavage; co-transcriptional

Q: Which self-cleavage does the source give for C7U G17A here?
A: Its self-cleavage is 0.175.

Q: With A8G G37C as the variant, how does the self-cleavage read?
A: The self-cleavage was 0.123.

Q: Which self-cleavage does the source give for A8C A13C here?
A: Its self-cleavage is 0.927.

Q: For A8G C63U, which self-cleavage is on record?
A: The self-cleavage was 0.612.

Q: Which self-cleavage does the source give for A8G C63A here?
A: Its self-cleavage is 0.253.

Q: Which self-cleavage does the source give for A8G C63G here?
A: Its self-cleavage is 0.164.

Q: For A8C U49G, which self-cleavage is on record?
A: The self-cleavage was 1.01.

Q: Which self-cleavage does the source give for A8C U49A here?
A: The self-cleavage was 1.06.

Q: Which self-cleavage does the source give for A8C U49C here?
A: The self-cleavage was 1.

Q: Which self-cleavage does the source give for A8G U49C here?
A: Its self-cleavage is 0.828.

Q: For A8G U49A, which self-cleavage is on record?
A: Its self-cleavage is 0.938.

Q: With C7U G25A as the variant, how does the self-cleavage read?
A: The self-cleavage was 0.144.

Q: With C7U G25C as the variant, how does the self-cleavage read?
A: Its self-cleavage is 0.0703.

Q: With A8G C54U as the variant, how does the self-cleavage read?
A: The self-cleavage was 0.805.

Q: With A8G C54G as the variant, how does the self-cleavage read?
A: Its self-cleavage is 0.343.

Q: For A8G C54A, which self-cleavage is on record?
A: The self-cleavage was 0.331.

Q: For C7U U61C, which self-cleavage is on record?
A: Its self-cleavage is 0.492.

Q: Which self-cleavage does the source give for C7U U61A here?
A: The self-cleavage was 0.805.

Q: Which self-cleavage does the source give for C7U U53A here?
A: Its self-cleavage is 0.861.

Q: With C7U U53G as the variant, how does the self-cleavage read?
A: Its self-cleavage is 0.949.

Q: For A8G G65A, which self-cleavage is on record?
A: The self-cleavage was 0.224.

Q: For A8C G47A, which self-cleavage is on record?
A: The self-cleavage was 1.02.

Q: Which self-cleavage does the source give for C7U G47A here?
A: Its self-cleavage is 0.954.

Q: Which self-cleavage does the source give for C7U G47C here?
A: The self-cleavage was 0.917.

Q: With A8C C33G as the variant, how does the self-cleavage read?
A: The self-cleavage was 0.527.

Q: For A8C C33A, which self-cleavage is on record?
A: The self-cleavage was 0.897.

Q: With A8G G56A as the variant, how does the self-cleavage read?
A: The self-cleavage was 0.562.

Q: Which self-cleavage does the source give for A8G G56C here?
A: Its self-cleavage is 0.233.

Q: For A8G G56U, which self-cleavage is on record?
A: The self-cleavage was 0.446.

Q: For A8C G11C, which self-cleavage is on record?
A: Its self-cleavage is 0.779.

Q: With A8C G11A as the variant, how does the self-cleavage read?
A: Its self-cleavage is 0.923.

Q: With A8C G11U as the variant, how does the self-cleavage read?
A: The self-cleavage was 0.768.

Q: With A8G C39A as the variant, how does the self-cleavage read?
A: The self-cleavage was 0.242.

Q: With A8G C39G as the variant, how does the self-cleavage read?
A: Its self-cleavage is 0.537.

Q: Which self-cleavage does the source give for A8G U46C here?
A: Its self-cleavage is 0.83.

Q: For A8G U46G, which self-cleavage is on record?
A: Its self-cleavage is 0.86.

Q: With A8G U46A as the variant, how does the self-cleavage read?
A: The self-cleavage was 0.99.

Q: Which self-cleavage does the source give for C7U G31U here?
A: Its self-cleavage is 0.365.

Q: Which self-cleavage does the source give for C7U G31C here?
A: Its self-cleavage is 0.222.

Q: Which self-cleavage does the source give for A8C C12G here?
A: Its self-cleavage is 0.798.

Q: Which self-cleavage does the source give for A8C C12U here?
A: The self-cleavage was 0.981.

Q: With A8G C57G as the variant, how does the self-cleavage read?
A: The self-cleavage was 0.203.

Q: Which self-cleavage does the source give for A8G C57A here?
A: The self-cleavage was 0.126.

Q: Which self-cleavage does the source give for C7U C24A here?
A: The self-cleavage was 0.499.

Q: With C7U U55A as the variant, how does the self-cleavage read?
A: Its self-cleavage is 0.914.

Q: For C7U C22A, which self-cleavage is on record?
A: Its self-cleavage is 0.103.

Q: With C7U C22G as the variant, how does the self-cleavage read?
A: Its self-cleavage is 0.117.

Q: For C7U U26C, which self-cleavage is on record?
A: Its self-cleavage is 1.01.

Q: Which self-cleavage does the source give for C7U U69G here?
A: Its self-cleavage is 1.03.

Q: Which self-cleavage does the source give for C7U U69C here?
A: Its self-cleavage is 1.06.

Q: Which self-cleavage does the source give for C7U U69A here?
A: Its self-cleavage is 1.02.

Q: For C7U U43A, which self-cleavage is on record?
A: Its self-cleavage is 0.828.

Q: With C7U U43C as the variant, how does the self-cleavage read?
A: The self-cleavage was 0.967.

Q: Which self-cleavage does the source give for C7U U64C here?
A: The self-cleavage was 0.794.

Q: Which self-cleavage does the source give for C7U U64A here?
A: Its self-cleavage is 0.908.

Q: Which self-cleavage does the source give for A8G C32A here?
A: The self-cleavage was 0.701.

Q: With C7U C34A as the variant, how does the self-cleavage read?
A: Its self-cleavage is 0.521.

Q: For C7U U62G, which self-cleavage is on record?
A: The self-cleavage was 0.595.

Q: With C7U U62C as the variant, how does the self-cleavage read?
A: The self-cleavage was 0.725.

Q: With C7U U62A as the variant, how does the self-cleavage read?
A: The self-cleavage was 0.638.

Q: With C7U G14A as the variant, how does the self-cleavage read?
A: The self-cleavage was 0.509.

Q: For C7U G14U, which self-cleavage is on record?
A: Its self-cleavage is 0.503.

Q: With A8C G41A as the variant, how does the self-cleavage read?
A: The self-cleavage was 0.89.

Q: With A8C G41U as the variant, how does the self-cleavage read?
A: Its self-cleavage is 0.78.

Q: For A8G C18U, which self-cleavage is on record?
A: Its self-cleavage is 0.207.

Q: With A8G C18A as the variant, how does the self-cleavage read?
A: The self-cleavage was 0.12.

Q: With A8G C18G as the variant, how does the self-cleavage read?
A: The self-cleavage was 0.0214.

Q: Which self-cleavage does the source give for A8G C24A here?
A: The self-cleavage was 0.446.

Q: For A8G C24U, which self-cleavage is on record?
A: The self-cleavage was 0.174.

Q: For A8G C24G, which self-cleavage is on record?
A: The self-cleavage was 0.15.

Q: With A8C C29A as the variant, how does the self-cleavage read?
A: Its self-cleavage is 0.532.

Q: For A8G U26G, which self-cleavage is on record?
A: The self-cleavage was 0.622.

Q: Which self-cleavage does the source give for A8G U26A here?
A: Its self-cleavage is 0.644.

Q: For A8G U26C, which self-cleavage is on record?
A: Its self-cleavage is 0.325.

Q: For A8C U46C, which self-cleavage is on record?
A: Its self-cleavage is 0.979.

Q: Which self-cleavage does the source give for A8C U46A here?
A: Its self-cleavage is 0.981.

Q: For A8C U55G, which self-cleavage is on record?
A: The self-cleavage was 0.851.

Q: Which self-cleavage does the source give for A8C U55A here?
A: The self-cleavage was 0.969.

Q: For A8C C18U, which self-cleavage is on record?
A: The self-cleavage was 0.88.

Q: With A8C C18G as the variant, how does the self-cleavage read?
A: Its self-cleavage is 0.186.

Q: For A8C G25A, which self-cleavage is on record?
A: Its self-cleavage is 0.148.

Q: With A8C G25C as the variant, how does the self-cleavage read?
A: The self-cleavage was 0.113.

Q: With A8G G68C as the variant, how does the self-cleavage read?
A: The self-cleavage was 0.851.

Q: For A8G G68U, which self-cleavage is on record?
A: The self-cleavage was 0.841.
